Measured values taken from the Human Domainome abundance scans (Beltran et al. 2025).

B1: POU domain, class 3, transcription factor 3, residues 320 to 388; numbered along this chain, P20264 (parent)
chain: DDLEQFAKQFKQRRIKLGFTQADVGLALGTLYGNVFSQTTICRFEALQLSFKNMCKLKPLLNKWLEEAD
B2: Histone-lysine N-methyltransferase 2A, residues 1148 to 1194; numbered along this chain, Q03164 (parent)
chain: KGRRSRRCGQCPGCQVPEDCGVCTNCLDKPKFGGRNIKKQCCKMRKC

Variants of: B1
Test: abundance fitness (aPCA) (normalised: wild type 0, dead -1); higher = more abundant; growth selection in yeast, the domain comes from the species named
Settings: Homo sapiens

Abundance fitness of substitutions, site by site:
E66: F -0.127; G -0.889; H 0.082; I 0.075; K -0.123; L -0.428; M 0.002; N 0.122; R -0.146; S -0.502; T -0.132; V -0.225; Y -0.635
E67: A -0.032; G -0.084; K -0.029; L 0.333; Q -0.227; R -0.015; S 0.196; T -0.134; V -0.321
A68: C -0.485; E -0.6; G -0.62; H -0.392; L -0.705; M 0.303; N -0.163; Q -0.587; R -0.248; S -0.082; Y -0.176
D69: E -0.183; L -0.436; P -0.128; S -0.573; T -0.314

Variants of: B2
Test: as above
Settings: Homo sapiens

Abundance fitness of substitutions, site by site:
I37: Q -0.024; C 0.095; A -0.025; H -0.258; L -0.159; V 0.02
R3: C 0.012; Q 0.023; K 0.161; N 0.017; M 0.056; G -0.091
K39: P -0.06; N -0.35; I -0.161; G -0.004; W -0.416; M -0.124; A -0.074; C -0.2
R45: L -0.527; M -0.308; K -0.529; Y -0.735; A -0.659; S -0.349; G -0.429; E -0.682; P -0.67; V -0.492
C8: D -0.442; Y -0.944; L -0.648; S -0.626; P -0.613; Q -0.568
Q10: I -0.02; F -0.284; H -0.189; T -0.23; Y -0.69
K43: G -0.312; I 0.121; A -0.015; D 0.018; T 0.09; E 0.179; S -0.112; M -0.031
C23: K -1; T -0.641; W -1.03; Y -0.987; A -0.675; E -0.543; D -0.516; P -0.736; N -0.766
G9: V -0.726; M -0.256; C -0.145; Q -0.299; T -0.653; E -0.866; W -0.553; L -0.562; A -0.519; Y -0.42
D19: G -0.96; V -0.901; P -0.935; Y -0.859; A -0.797; I -1.24; L -0.878
R6: A 0.182; H 0.089; G -0.088; M -0.171; V -0.204
P30: W -0.711; N 0.057; Q -0.381; G -0.213; H -0.26; L -0.361; T -0.312
P12: W -0.723; G -0.872; S -0.676; N -0.465; M -0.081; F -0.63
G21: D -0.872; C -0.805; L -0.626; Q -0.918; S -0.542
K46: N -0.728; A 0.206; M 0.074; H -0.02; E 0.105; Q 0.153; V 0.039
K38: R -0.036; I 0.275; T -0.221; A -0.099; G -0.35; P -0.29; L 0.143
C26: K -0.785; S -1.02; V -1.04; G -0.974; L -0.902; H -0.988
G33: A -0.394; C -0.677; T -0.526; Q -0.535; P -0.707; Y -0.613
D28: C -0.868; P -0.937; L -0.921; I -0.628; V -0.374; M -0.761; S -0.626
R4: G 0.125; K 0.186; Y -0.184; W -0.54; E 0.068
R35: Q 0.065; P 0.075; F -0.043; C -0.229; A 0.189; W -0.524
G13: E -0.353; Q -0.068; K -0.678; W -0.708; A -0.219; C -0.315; H -0.884; R -0.719; M -0.381
C41: H 0.098; L -0.241; Y -0.322; Q 0.119; M 0.127; P 0.028
M44: A -0.012; I -0.021; V -0.213; E 0.003; S -0.335; G -0.251; C -0.484; Q 0.037
E18: K -0.002; P -0.495; M -0.22; N -0.161; V -0.093; G -0.469; T -0.164; Q -0.177
Q40: C -0.284; R -0.229; E 0.312; S -0.103; G 0.034; V -0.042; T -0.234; W -0.545; M -0.138; D -0.03; I -0.772; K -0.249
T24: Y -0.238; M -0.149; P -0.091; S -0.256; G -0.207; L -0.477; V -0.479
L27: C -0.569; F -0.353; E -0.129; G -0.583; A -0.257; Q -0.064; H -0.34
V22: P -0.769; R -0.021; C -0.311; G -0.319
G2: W -0.79; K -0.569; E 0.013; R -0.413; L -0.303; Q -0.007; S -0.213
V16: A -0.278; M 0.159; Y -0.178; S -0.168; P -0.414; W -0.285; K 0.103
G34: W -0.906; F -0.409; I -0.787; Y -0.774
Q15: T -0.244; E -0.103; P -0.838; C -0.37; L -0.049
K1: G -0.676; P -0.662; S -0.232; R -0.285; M -0.337
C11: I -0.913; Y -0.827; M -0.784; K -0.964; H -0.495; W -0.674; T -0.519; V -0.371
N36: Y -0.569; G -0.091; T -0.731; M -0.274
K31: Q -0.285
R7: G -0.036; I -0.17; V 0.075; Y -0.214; A -0.09; S 0.019
N25: K -0.633; L -0.536; A -0.078; T -0.325; I 0.121; M -0.084
C14: N -0.288; T -0.728; G -0.559; I -0.663; R -0.784; Y -0.554; L -0.916
P17: N -0.313; F -0.123; A -0.058; K 0.095; Q -0.159; Y -0.485
C20: E -0.736; D -0.782; N -0.898; T -0.753; K -0.594; H -0.97
S5: F 0.163; K -0.093; I -0.604; N -0.161; H -0.25; T -0.24; M -0.236
C42: W -0.821; Y -0.792; M -1.01; G -0.909
K29: Q -0.427; E -0.519; T -0.397; H -0.618
C47: R -0.925; T -0.884; Y -0.967
F32: T -0.272; R -0.496; D 0.01
